Reference: the RNAGym collection of RNA variant scans (doi:10.1073/pnas.2313332121)
Variants at the floor of the assay were thinned out.

B1: TPR 5TU (parent)
chain: GGAUCUUCUCGAUCUAACAAAAAAGACAAAUCUGCCACAAAGCUUGAGAGCAUCUUCGGAUGCAGAGGCGGCAGCCUUCGGUGGCGCGAUAGCGCCAACGUUCUCAACUAUGACACGCAAAACGCGUGCUCCGUUGAAUGGAGUUUAUCAUG

Variants of: B1
Test: polymerase ribozyme fitness, log enrichment relative to wild type (log ratio); higher = more active; in vitro selection for triplet polymerase activity
Outline: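 Streptavidin-bead capture of gel-excised extended constructs, followed by RT-PCR, closed a single triplicate in vitro selection round. That round began by annealing PCR-built, transcribed mutant libraries of each subunit of a heterodimeric triplet polymerase ribozyme with a biotinylated primer, the partner subunit and triplets, then incubating them frozen at −7 °C. After Illumina sequencing of inputs and outputs, genotypes needed ≥10 input reads and ≥1 read per output. Fitness is the base-2 logarithm of genotype enrichment over wild-type enrichment, using inverse-variance-weighted replicate averages.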

Variant | polymerase ribozyme fitness (log ratio)
A22U U61A C96U | -0.569
A23G U55A C87U | -2.98
A24C U45A C57U G84A | ≤ -4.2
A23U A91G | ≤ -4.2
A23G G48U G65C C72U G81C G83U | ≤ -4.2
A24G A66G C85A A91U U127C G133A U134A | ≤ -4.2
A23U C85G G141A | ≤ -4.2
A24G C54U C95U A97C A119U C125U | ≤ -4.2
A22U U55A C96U | -0.172
A24C C54G C76U U78A C105A A147C | ≤ -4.2
A23C A29U C38U C54A G84A A98U A106G A137U | ≤ -4.2
A23U A30G U45A A97G G100U | -4.19
A23G A40G G42C | ≤ -4.2
A23G G58U C108G U135G | ≤ -4.2
A24G C54A A106G | ≤ -4.2
A23U C43G G48A G92A A98G A147U G152C | -3.84
A23C C87U | -3.89
A23C C87G | ≤ -4.2
A23U G94A | -3.99
A23U C36U C85A C96G A97U | ≤ -4.2
A23G A40U A66C U109G U111G C149U | ≤ -4.2

Variant | polymerase ribozyme fitness (log ratio)
A23U C87A G133A | ≤ -4.2
A23C G58A C87U A91U | ≤ -4.2
A24C G65A G84C A97G G100U C108G G141C | ≤ -4.2
A23U G74U U82G | ≤ -4.2
A23G A28G A39U A40U U44A U61A U78G C85U U151G | ≤ -4.2
A22U U56A G84A G136C | -3.75
A24C C72A C103A U109G G126U | ≤ -4.2
A24G C96G A137U | ≤ -4.2
A23U A24C G25U G94C A119C C123A G141C | ≤ -4.2
A23G C27U A29C C32A C36G C85U C95A U127G | -4.14
A23U U77C C87U | ≤ -4.2
A23G A37G A39G U44A A64U C75U C95U C108A A142U | ≤ -4.2
A24C A28U A37U U134C | ≤ -4.2
A23U U55A G88A C114A G136C | ≤ -4.2
A23C A39C C76A A97G G143C | -3.82
A22U U135C | -1.64
A24C A30U A52G G58A G68A U82G C93U A98U G100C C125A G126U | ≤ -4.2
A24G A29G G46U | ≤ -4.2
A23U C54U G74U U78G | ≤ -4.2
A23C A98U A113U | -4.18
A23U A26C A30U U56A A60C G86U G88C C95G G124U A137U U148C | ≤ -4.2

Variant | polymerase ribozyme fitness (log ratio)
A23U G48C C54A C75G G80C C96U G140A | ≤ -4.2
A22U U127A | -3.54
A24C A29C U55G G94C | ≤ -4.2
A23U C93U G126U | ≤ -4.2
A22U U82A C96U | 0.375
A23C A29C U31G U33C C95U C96U A107U U127C A138C | ≤ -4.2
A24G C85A | -2.96
A24G C85G | ≤ -4.2
A23G C27U C125A G143U | ≤ -4.2
A23G C32G G70A C85G | ≤ -4.2
A24C A30U C43A C57U C87G | ≤ -4.2
A22U U31G C54G C85U U146C | -0.611
A24C G84A | ≤ -4.2
A23G U61G C93G G126A | ≤ -4.2
A23U C93A A97G A113G G124U | ≤ -4.2
A22U G59A A66U G86A A120G A138G | ≤ -4.2
A23U G50A C132U G140C | ≤ -4.2
A23U A64C G68C | ≤ -4.2
A22U G126A | 1.07
A23U A30G G42U A52U U56A C72G C95G C114G U139A | ≤ -4.2
A23C C96G | -3.81

Variant | polymerase ribozyme fitness (log ratio)
A23C | -3.48
A23G | -1.78
A23U | -3.23
A23G A49U C51U U53A A60G U61A G71U A73G C85A C87A C105G | ≤ -4.2
A22U U56A C93G A98G C108A C114G U151A | ≤ -4.2
A24C G81U G83C A110U C114G | ≤ -4.2
A22U U144A | 0.777
A23U C38U | -4.06
A23G G50U U146G | -3.73
A23G A29U U61G C99U | ≤ -4.2
A23U A26U C51A A66U C85U U148C | ≤ -4.2
A22U U102G | -2.64
A23G A26U C54A U90G A91G | ≤ -4.2
A24C A30G A73U C96A | ≤ -4.2
A23C C27G U61A U77A A91U G136C | ≤ -4.2
A23G A41C U90G A110G | ≤ -4.2
A23U G42C C75U U82G G84U C96A | ≤ -4.2
A24C A98U | ≤ -4.2
A24C C27G G94A A106G C108U | -3.93
A23C U53A G83C A91G A147U | ≤ -4.2
A24C G86U U90A U101A A106G A113U A120U G126A | ≤ -4.2
